This is an account of results in PMC9735655, “Two Distinct Modes of DNA Binding by an MCM Helicase Enable DNA Translocation”.

Usually stoichiometry N stands for a count of units in the complex or per binding partner.

Data set [1] deals with MCM protein of Saccharolobus solfataricus with the C-terminal helix-turn-helix domain removed and a modified linker between the N-terminal domain and the AAA+ ATPase domain (Saccharolobus solfataricus) (UniProt Q9UXG1). The data set is described as follows: cryo-EM structure; SsoMCM at 1 mg/mL mixed 5:1 by volume with 1 mM oligonucleotide (T12, T16 or T20-CTATAG-T20), 5 mM ADP-BeF3, magnesium; plunge-frozen; two structural classes, also refined from merged particles.

The target in data set [2] is T1, SsoMCM (C-terminal HTH removed, modified interdomain linker; pEE078.1) (Saccharolobus solfataricus, UniProt Q9UXG1 1-265+=GGSGGS+275-612, internal_change).
T1 sequence: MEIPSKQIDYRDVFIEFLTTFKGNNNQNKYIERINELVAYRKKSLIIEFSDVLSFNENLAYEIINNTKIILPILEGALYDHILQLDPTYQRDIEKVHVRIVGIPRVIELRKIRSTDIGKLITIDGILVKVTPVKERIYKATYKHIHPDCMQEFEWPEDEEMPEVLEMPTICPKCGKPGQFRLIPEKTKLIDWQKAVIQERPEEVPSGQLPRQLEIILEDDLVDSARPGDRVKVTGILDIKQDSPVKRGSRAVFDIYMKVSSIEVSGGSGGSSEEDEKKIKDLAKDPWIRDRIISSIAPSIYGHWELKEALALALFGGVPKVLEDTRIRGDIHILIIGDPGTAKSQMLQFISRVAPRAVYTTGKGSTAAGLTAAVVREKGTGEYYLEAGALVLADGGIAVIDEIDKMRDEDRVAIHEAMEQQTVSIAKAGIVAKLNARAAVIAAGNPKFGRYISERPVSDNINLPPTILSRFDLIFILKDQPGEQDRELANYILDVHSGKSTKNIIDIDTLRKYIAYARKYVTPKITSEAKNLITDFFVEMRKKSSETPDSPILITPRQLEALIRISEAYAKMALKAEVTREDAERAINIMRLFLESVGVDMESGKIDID
Description: cryo-EM; Mg2+, ADP-BeF3; class 1 (six subunits on DNA, 2.48 A); Cryo-EM sample: protein 1 mg/mL mixed 5:1 (v/v) with 1 mM oligonucleotide, 5 mM fresh ADP-BeF3, magnesium present; buffer, salt, pH and temperature not stated in the material. The settings on record: protein: recombinant; tags: His6-SUMO removed with Ulp1; chain copies: 6; single strand.

Data set [3] deals with T1, SsoMCM (C-terminal HTH removed, …). The data set is described as follows: cryo-EM; Mg2+, ADP-BeF3; class 1 (six subunits on DNA); Cryo-EM sample: protein 1 mg/mL mixed 5:1 (v/v) with 1 mM oligonucleotide, 5 mM fresh ADP-BeF3, magnesium present; buffer, salt, pH and temperature not stated in the material. To be noted: protein: recombinant, tags: His6-SUMO removed with Ulp1, chain copies: 6.

As to “MCM protein of Saccharolobus solfataricus with the C-terminal helix-turn-helix domain removed and a modified linker between the N-terminal domain and the AAA+ ATPase domain (from UniProt Q9UXG1 1-686) (enzyme)”, the stoichiometry N in data set [1] was found to be 6. In the case of TTTTTTTTTTTTTTTT (ssDNA) [T16 (16-mer poly-dT)], the binding result in data set [2] is reported as “binds”. TTTTTTTTTTTT (ssDNA) [T12 (12-mer poly-dT)]: the binding result in data set [3] (single strand) is reported as “binds”.

On to TTTTTTTTTTTTTTTTTTTTCTATAGTTTTTTTTTTTTTTTTTTTT (ssDNA) [T20-CTATAG-T20], for which the binding result in data set [3] (central 6-nt palindrome, potential X-shape with 20-mer poly-dT arms) is “binds”.
